{
  "source": "the domain aggregation screens of Martell et al. (2025)",
  "data": [
    {"test": "soluble fraction after stress (log2 fold change); higher = more stays soluble; pooled small domains, quantitative proteomics", "conditions": "stress: 75 degC", "values": [
      {"sequence": "HMYRLSPSWRIVERDDGFEIYGGDDARFQLDPSPLVSRLAAGDAVTRDGLDPTGAIEFEQLLSAGMIRPEI", "soluble fraction (log2)": -0.263},
      {"sequence": "HMYRYTTFKVKEADTLLPFIQKSLNGISHNRAKAILTGGGVLVDKKITRAYDFALRPGMTVEISKSKP", "soluble fraction (log2)": -1.72},
      {"sequence": "HMYRYYSTLRPITPGAYPKPADNPAMLIHNFDNREYVGKIGREAWGYVEYNNPLTKEQIEAFDFVAE", "soluble fraction (log2)": 0.0626},
      {"sequence": "HMYSDIERAMTNAPEQFANKQAVLDFLNKNRIKKSEVDDYRIASLLKLYDDASPISKTEIISQVRT", "soluble fraction (log2)": 0.396},
      {"sequence": "HMYSDQRMEIFLEHLPDFIEQLSHKHVTRQMVWEDYRMIYPDGYGKSQFFFHLAQNLKAQKP", "soluble fraction (log2)": -3.21},
      {"sequence": "HMYSYSFTSSEGSTFEGQLIRVEESQVTILRYADQKEFSIPKSRFIEADQVYFERWAIENPQL", "soluble fraction (log2)": -4.18},
      {"sequence": "HMYSYSGSVSNTHDVPVSVVLKDAEGVAIASWDLQAKQSLNISAKDIATSSGTIEITGDGVSETKTVTFTK", "soluble fraction (log2)": 1.03},
      {"sequence": "HMYTVKELSRLTGLTPRTLRYYDAIGLLSPARNRDNDYRLYGGAEVDRLQEILLYREMGLPLEEIGRILD", "soluble fraction (log2)": -1.51},
      {"sequence": "HMYTVQPHESLWSIAASQLGDGHRFTEIVDLNQELLGGKANFIKPGWVLQIP", "soluble fraction (log2)": -0.362},
      {"sequence": "HMYTVVVGDSPSLIADKTGVPLKELTAMNPNLSDNFLPGKQLL", "soluble fraction (log2)": -0.0135},
      {"sequence": "HMYVEVPNFIGVPLVKVQSELASLGLVFNKSVVYQTSPYLKGNILDQRPLPGEVVPLNTEMSFTVSSGPA", "soluble fraction (log2)": -0.5},
      {"sequence": "HMYVKIAADAAMPYTIKRVVTDYSSAALDAAYDGSLPKWLTISSSTKDAGSGLYRHEIIYTVTAHPE", "soluble fraction (log2)": -0.666},
      {"sequence": "HMYVYEPGEFAVRGSILDVYSYASEFPYRIDFFGDDVESIRTFEVQTQLSKEAKDRVSIVPDTEQ", "soluble fraction (log2)": -0.258},
      {"sequence": "HMYYNDEELDGYRGTPSDAYSDNAVEEFREVLYTLREDEVSGWVRSLQLRGIFLPDAIKDETFLI", "soluble fraction (log2)": -1.33},
      {"sequence": "HMYYTAPDGRKREILDAALRLIAAGGPDSLTYRRVADEAGVPLGSLTYYFEAREDLIREAFRLYIAEASR", "soluble fraction (log2)": -3.16}
    ]}
  ]
}
